This note sets out measurements from PMC6546054 (Genes & Development, 2019).

B1: His6IraD (wild type) (natural protein, E. coli K12, UniProt P39375 1-130, looked up)
chain: MMRQSLQAVLPEISGNKTSSLRKSVCSDLLTLFNSPHSALPSLLVSGMPEWQVHNPSDKHLQSWYCRQLRSALLFHEPRIAALQVNLKEAYCHTLAISLEIMLYHDDEPLTFDLVWDNGGWRSATLENVS

The target in data set [1] is RssB (wild type) (E. coli K12) (UniProt P0AEV1). Kind of data set: cross-linking.
The target in another data set is T1, RssB^R115A (E. coli K12, UniProt P0AEV1 1-337, R115A).
T1 sequence (looked up): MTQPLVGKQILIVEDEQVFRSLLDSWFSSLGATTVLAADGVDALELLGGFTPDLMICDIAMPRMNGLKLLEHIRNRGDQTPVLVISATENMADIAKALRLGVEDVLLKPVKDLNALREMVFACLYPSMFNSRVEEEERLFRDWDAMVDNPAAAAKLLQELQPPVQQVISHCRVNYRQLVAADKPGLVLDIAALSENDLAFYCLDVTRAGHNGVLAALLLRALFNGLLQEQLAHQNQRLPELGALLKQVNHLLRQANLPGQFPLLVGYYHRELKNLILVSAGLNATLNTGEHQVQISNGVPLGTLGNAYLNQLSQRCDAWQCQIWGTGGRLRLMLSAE
Kind of data set: pull-down.

Another data set concerns the target T2, RssB^(Q254A N256A) (E. coli K12, UniProt P0AEV1 1-337, Q254A | N256A).
T2 sequence (looked up): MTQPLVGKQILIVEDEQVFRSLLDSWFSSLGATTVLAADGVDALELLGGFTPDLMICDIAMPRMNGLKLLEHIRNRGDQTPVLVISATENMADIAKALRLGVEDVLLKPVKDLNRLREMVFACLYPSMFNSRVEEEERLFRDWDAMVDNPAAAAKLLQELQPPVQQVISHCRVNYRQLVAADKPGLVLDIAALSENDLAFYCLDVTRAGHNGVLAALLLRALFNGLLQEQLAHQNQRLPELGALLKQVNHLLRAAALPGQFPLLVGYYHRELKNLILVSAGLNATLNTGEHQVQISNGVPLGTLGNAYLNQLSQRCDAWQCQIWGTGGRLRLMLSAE
Kind of data set: pull-down.

The target in a further data set is T3, RssB^AAA (E. coli K12, UniProt P0AEV1 1-337, E134-E137 to EAAA).
T3 sequence (looked up): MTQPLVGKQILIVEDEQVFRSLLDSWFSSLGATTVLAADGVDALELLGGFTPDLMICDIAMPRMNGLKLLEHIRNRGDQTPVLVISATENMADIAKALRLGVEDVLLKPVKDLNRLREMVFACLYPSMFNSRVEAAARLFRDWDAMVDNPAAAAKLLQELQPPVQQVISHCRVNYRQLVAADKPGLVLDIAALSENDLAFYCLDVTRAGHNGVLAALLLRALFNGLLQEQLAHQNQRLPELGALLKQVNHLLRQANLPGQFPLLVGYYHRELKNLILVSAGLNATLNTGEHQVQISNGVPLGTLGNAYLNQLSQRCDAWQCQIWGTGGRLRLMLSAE
Kind of data set: pull-down.

The next data set deals with T4, RssB (wild type) (E. coli K12, UniProt P0AEV1 1-337).
T4 sequence (looked up): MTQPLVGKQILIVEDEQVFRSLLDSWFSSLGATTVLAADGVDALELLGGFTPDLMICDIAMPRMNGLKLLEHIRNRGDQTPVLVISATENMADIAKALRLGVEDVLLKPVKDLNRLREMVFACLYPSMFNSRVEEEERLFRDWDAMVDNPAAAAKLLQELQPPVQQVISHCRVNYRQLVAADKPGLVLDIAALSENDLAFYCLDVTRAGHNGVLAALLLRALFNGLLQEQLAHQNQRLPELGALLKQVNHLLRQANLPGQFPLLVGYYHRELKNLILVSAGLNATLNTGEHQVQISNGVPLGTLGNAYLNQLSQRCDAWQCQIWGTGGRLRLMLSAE
The experiment in a line: pull-down.

The data set “cross-linking” deals with the molecule itself. Kind of data set: cross-linking.
For the data set “His6IraD (wild type)”, the target named is B1. Kind of data set: pull-down.

“RssB (wild type) (from UniProt P0AEV1 1-337) (natural protein)” gave a stoichiometry N in data set [1] of 2.
Regarding B1, the binding result in the data set with RssB^R115A, with RssB^(Q254A N256A), with RssB^AAA and with RssB (wild type) was “binds” in each case.

B2: RssB^CC (natural protein, E. coli K12, UniProt P0AEV1 1-337, looked up)
chain: MTQPLVGKQILIVEDEQVFRSLLDSWFSCLGATTVLAADGVDALELLGGFTPDLMICDIAMPRMNGLKLLEHIRNRGDQTPVLVISATENMADIAKALRLGVEDVLLKPVKDLNRLREMVFACLYPSMFNSRVEEEERLFRDWDAMVDNPAAAAKLLQELQPPVQQVISHCRVNYRQLVAADKPGLVLDIAALSENDLAFYCLDVTRAGHNGVLAALLLRALFNGLLQCQLAHQNQRLPELGALLKQVNHLLRQANLPGQFPLLVGYYHRELKNLILVSAGLNATLNTGEHQVQISNGVPLGTLGNAYLNQLSQRCDAWQCQIWGTGGRLRLMLSAE
For B2, the “stoichiometry N” value in the data set “cross-linking” came out at 2.

B3: RssB^D104N (natural protein, E. coli K12, UniProt P0AEV1 1-337, looked up)
chain: MTQPLVGKQILIVEDEQVFRSLLDSWFSSLGATTVLAADGVDALELLGGFTPDLMICDIAMPRMNGLKLLEHIRNRGDQTPVLVISATENMADIAKALRLGVENVLLKPVKDLNRLREMVFACLYPSMFNSRVEEEERLFRDWDAMVDNPAAAAKLLQELQPPVQQVISHCRVNYRQLVAADKPGLVLDIAALSENDLAFYCLDVTRAGHNGVLAALLLRALFNGLLQEQLAHQNQRLPELGALLKQVNHLLRQANLPGQFPLLVGYYHRELKNLILVSAGLNATLNTGEHQVQISNGVPLGTLGNAYLNQLSQRCDAWQCQIWGTGGRLRLMLSAE
On to B3, for which the “binding relative to wild type” value in the data set with His6IraD (wild type) turned out to be 18 ± 3%.
